Experimental data published in patent US7094873.

How the values were obtained:
[1] = molecular target: Hsp90 in rabbit reticulocyte lysate (Hsp90 heterocomplex) (rabbit) (UniProt P30947); assay: rabbit reticulocyte lysate with recombinant CHIP, immunoprecipitation of Hsp90 with 3G3, Western blot; displaced molecule: Hop
[2] = molecular target: Hsp90 in rabbit reticulocyte lysate (Hsp90 heterocomplex) (rabbit) (UniProt P30947); assay: reticulocyte lysate with 35S-labeled GR, with or without CHIP, immunoprecipitation of Hsp90 with 3G3; displaced molecule: GR

Hsp90 in rabbit reticulocyte lysate (Hsp90 heterocomplex) (rabbit), sequence (P30947 2-726, one chain of several): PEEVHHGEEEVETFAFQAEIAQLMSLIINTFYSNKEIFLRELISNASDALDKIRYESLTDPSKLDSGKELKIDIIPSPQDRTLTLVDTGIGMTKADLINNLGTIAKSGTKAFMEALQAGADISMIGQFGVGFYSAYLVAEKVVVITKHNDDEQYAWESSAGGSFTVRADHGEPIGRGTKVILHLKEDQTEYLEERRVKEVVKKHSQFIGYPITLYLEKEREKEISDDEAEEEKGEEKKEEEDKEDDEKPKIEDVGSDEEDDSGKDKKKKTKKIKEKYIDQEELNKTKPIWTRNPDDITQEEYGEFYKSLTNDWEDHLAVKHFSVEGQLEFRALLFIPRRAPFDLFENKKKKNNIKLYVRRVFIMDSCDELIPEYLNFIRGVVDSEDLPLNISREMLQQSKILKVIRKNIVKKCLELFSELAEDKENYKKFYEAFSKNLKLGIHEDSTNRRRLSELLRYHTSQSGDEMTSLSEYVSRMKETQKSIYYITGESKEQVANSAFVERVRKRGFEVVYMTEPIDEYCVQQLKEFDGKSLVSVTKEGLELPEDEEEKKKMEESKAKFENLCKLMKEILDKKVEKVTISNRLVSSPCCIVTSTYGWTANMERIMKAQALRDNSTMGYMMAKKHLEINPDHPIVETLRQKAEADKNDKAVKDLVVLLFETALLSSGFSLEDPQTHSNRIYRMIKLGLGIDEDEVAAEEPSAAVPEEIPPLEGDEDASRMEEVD

## Recombinant hCHIP (His-tagged fusion from plasmid pET-hCHIP, expressed in E. coli BL21) (from UniProt Q9UNE7 1-303)
[1]
  decrease of the amount of Hop associated with the Hsp90 complex: 50%
[2]
  decrease of GR co-precipitated with Hsp90: 50%
